# Paper PMC4793595
# T1: MS2 coat protein (bacteriophage MS2), P03612
# T1 chain: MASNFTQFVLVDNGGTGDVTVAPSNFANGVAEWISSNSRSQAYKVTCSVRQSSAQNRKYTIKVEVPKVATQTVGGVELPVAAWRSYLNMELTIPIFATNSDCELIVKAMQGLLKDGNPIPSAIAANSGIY
# Molecular target: T1, MS2 coat protein (bacteriophage MS2), …
# Assay: native MS + AUC
# Conditions: remark: other sources report otherwise
binder,measurement,value
"MS2 coat protein, P03612 1-130 (natural protein) MASNFTQFVLVDNGGTGDVTVAPSNFANGVAEWISSNSRSQAYKVTCSVRQSSAQNRKYTIKVEVPKVATQTVGGVELPVAAWRSYLNMELTIPIFATNSDCELIVKAMQGLLKDGNPIPSAIAANSGIY",stoichiometry N,2
